The record followed here is article PMC6108940 (Cell, 2018).

Usually stoichiometry N stands for a count of units in the complex or per binding partner.

The target in assay [1] is yeast COMPASS catalytic module (Set1-Swd1-Swd3-Bre2-Sdc1) (Kluyveromyces lactis, UniProt Q6CIT4). Briefly: H3K4 methylation of nucleosomes, western blot. In kind it is biochemical. Particulars: 0.2 mM SAM, 1 uM enzyme, 0.5 uM nucleosomes, pH 7.5, 30 C, 30 min. (Immunoblotting shows a protein as a band on a membrane.)
Assay [2] deals with K. lactis Sdc1 (crystallised construct) (K. lactis). Briefly: crystal structure.
The target in assay [3] is K. lactis Bre2 (crystallised construct) (K. lactis). Briefly: crystal structure.

As to `C[S+](CC[C@H](N)C(=O)O)C[C@H]1O[C@@H](n2cnc3c(N)ncnc32)[C@H](O)[C@@H]1O` (stereo partly drawn) [SAM], the “H3K4 methylation of nucleosomes, western blot” value in assay [1] is “alanine mutation of Trp197 drastically compromised the catalytic activity of Set1”. For the compound “K. lactis Sdc1 (crystallised construct) (natural protein)”, the stoichiometry N in assay [2] and in assay [3] was 2 each time.
